Experimental data published in patent publication US20230340132A1, “ANTI-ADENOSINE RECEPTOR (A2aR) ANTIBODIES” (NA Biotech Corp, priority 2020, published 2023).
Where “and” joins values, the source holds several entries; their conditions need not be identical. Equal entries are not always repeated. Entries after “also recorded” stand apart in the source; their conditions may differ.

T1: human adenosine receptor A3 (Homo sapiens, UniProt P0DMS8)
T1 construct: FLAG
T1 sequence (P0DMS8 1-318): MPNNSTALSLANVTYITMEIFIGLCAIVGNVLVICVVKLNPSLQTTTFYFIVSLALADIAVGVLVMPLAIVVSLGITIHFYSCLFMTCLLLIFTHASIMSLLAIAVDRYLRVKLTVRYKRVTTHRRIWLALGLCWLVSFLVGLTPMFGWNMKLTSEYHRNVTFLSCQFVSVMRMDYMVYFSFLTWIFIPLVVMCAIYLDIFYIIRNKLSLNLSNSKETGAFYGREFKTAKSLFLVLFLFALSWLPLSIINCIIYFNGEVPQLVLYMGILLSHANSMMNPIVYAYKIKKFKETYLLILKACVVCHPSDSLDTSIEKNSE

T2: human adenosine receptor A3 (human, UniProt P0DMS8 1-318)
T2 construct: whole, on cells; the tag is not described; also called A3R; human A3R
T2 sequence (looked up): T1 sequence (P0DMS8 1-318)

T3: human adenosine receptor A2B (human, UniProt P29275 1-332)
T3 construct: whole, on cells; the tag is not described; also called A2bR; human A2bR
T3 sequence (looked up): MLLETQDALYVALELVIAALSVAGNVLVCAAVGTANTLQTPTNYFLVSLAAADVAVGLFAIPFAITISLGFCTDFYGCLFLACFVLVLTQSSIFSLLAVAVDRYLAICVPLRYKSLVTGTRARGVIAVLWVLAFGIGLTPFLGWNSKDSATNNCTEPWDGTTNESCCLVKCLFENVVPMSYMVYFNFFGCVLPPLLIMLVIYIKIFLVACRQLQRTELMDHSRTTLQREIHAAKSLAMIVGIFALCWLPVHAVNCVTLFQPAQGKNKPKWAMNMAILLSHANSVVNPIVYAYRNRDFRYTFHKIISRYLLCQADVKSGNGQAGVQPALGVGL

B1: anti-human A2aR monoclonal antibody 1B5-3D7 (antibody, V domains shown)
VH: QVQLQQPGTELVKPGAPVKLSCKTSGFTFTRFWMNWVRQRPGRGLEWIGRIDPYDSETQYNHKFWDRATLTVDKSSSTVYIQLSSLTSEDSAVYYCGRSLYGKGDYWGQGTTLTVSS
VL: DVLMTQSPLSLPVSLGDQASISCRSSQSIVHSNGNTYLEWYLQRPGQSPKLLIYKVSNRFSGVPDRFSGSGSGTYFTLRISRVEAEDLGIYYCFQGSHVPLTFGSGTTLELK
notes: Tested as whole mouse IgG2a / kappa, purified from hybridoma supernatant or made recombinantly in Expi293 cells; also called 1B-3D7
B2: 3F6-9G5: anti-human A2aR monoclonal antibody from mouse hybridoma clone; HCVR SEQ ID NO: 36, LCVR SEQ ID NO: 42 (antibody, V domains shown)
VH: QVQLQQPGTELVKPGAPVRLSCKASGFAFTSYWMNWVRQRPGRGLEWIGRIDPSDSEAHYHHKFWGKATLTVDKSSSTVYIQLNGLTSEDSAVYYCLRSLYGKGDYWGHGTTLTVSS
VL: DVLMTQTPLSLSVRLGDQASISCRSSQSLVHRNGNTYLEWYLQRPGQSPKLLIYKVSNRFSGVPDRFSGSGSGTDFTLKISRVEAEDLGVYYCYQGSHVPLTFGSGTKLEIK

Key:
[1] = biological target: human adenosine A2A receptor (A2aR) (human, UniProt P29274 1-412); assay: cell-based or functional assay
[2] = biological target: T1, human adenosine receptor A3; assay: flow cytometry-based cell-binding assay, HEK293T-A3; settings: duplicate
Procedure: To test the specificity of the antigen binding molecules of the invention, e.g., anti-A2aR antibodies or antigen binding fragments thereof to human A2aR and not towards any of the other 3 adenosine receptor family members, a flow cytometry-based cell-binding assay was performed by Multispan Inc (Hayward, CA). HEK293T cells stably expressing various adenosine receptors, i.e., human A1R, A2bR, and A3R, and mouse A2R, generated by Multispan Inc and HEK293T parental cell lines were used in the assay. Briefly, adenosine receptor-overexpressing cell lines and HEK293T parental cell lines were incubated with 2, 10, and 50 nM of anti-human A2aR monoclonal antibodies (clones 1B5-3D7 and 3F6-9G5) and 10 and 50 nM of mouse IgG2a Isotype control at 4° C. in the dark for 60 minutes. Anti-FLAG antibody (Abcam, ab72469, 2 μg/mL) was used as positive control for cell lines over-expressing various adenosine receptors, respectively. After 3 washes with FACS buffer (PBS plus 0.1% BSA and 0.2% sodium azide), cells were stained with an anti-mouse-IgG-PE (Invitrogen, cat. P852) detection antibody for 45 minutes at 4° C. The cells were then washed 3 times with FACS buffer and analyzed on FACSort (Becton Dickinson). Data was analyzed using CellQuest Pro (Becton Dickinson).

[3] = biological target: T2, human adenosine receptor A3; assay: flow cytometry on HEK293T cells stably expressing human A3R
[4] = biological target: T3, human adenosine receptor A2B; assay: flow cytometry on HEK293T cells stably expressing human A2bR
[5] = biological target: T4, mouse adenosine receptor A2A (mouse, UniProt Q60613 1-410); assay: flow cytometry on HEK293T cells stably expressing mouse A2aR
T4 construct: whole, on cells; the tag is not described; also called mouse A2aR; mouse A2R

[6] = biological target: T5, human A2aR on human T cells (PBMC) (Homo sapiens, UniProt P29274); assay: primary cell binding by flow cytometry, human PBMC; settings: rabbit Fc format, 2 μg/ml
T5 construct: host or cells: human PBMC (T cells)
Procedure: (§1) Human and cynomolgus PBMCs were purchased from Cytologics LLC (San Diego, CA) and iQ Biosciences (Berkeley, CA), respectively. Primary cell binding was determined using anti-human A2aR clone 3F6-9G5 at rabbit Fc format. In brief, 10^6 human and/or cynomolgus PBMCs in 100 μl FACS buffer were incubated with 3F6-9G5 (2 μg/ml) at 4° C. for 60 minutes. Cynomolgus cross-reactive anti-human CD3 (clone SP34, BD), anti-human CD8 (clone RPA-T8, Biolegend) and Zombie Green fixable Viability dye (Biolegend, Cat. 423111) were used according to manufacturer's instruction to define live immune cell subsets. After 3 washes with FACS buffer, cells were stained with PE-conjugated donkey anti-rabbit Fc detection antibody (1:200, Biolegend, Cat. 406421) for 30 minutes at 4° C. After 3 washes with FACS buffer, cells were analyzed on LSRII (Becton Dickinson). Data was analyzed using FlowJo (Becton Dickinson).

[7] = tested on: cynomolgus A2aR on cynomolgus T cells (PBMC); assay: primary cell binding by flow cytometry, cynomolgus PBMC; settings: rabbit Fc format, 2 μg/ml
Procedure: as §1

T5 sequence (P29274 whole entry): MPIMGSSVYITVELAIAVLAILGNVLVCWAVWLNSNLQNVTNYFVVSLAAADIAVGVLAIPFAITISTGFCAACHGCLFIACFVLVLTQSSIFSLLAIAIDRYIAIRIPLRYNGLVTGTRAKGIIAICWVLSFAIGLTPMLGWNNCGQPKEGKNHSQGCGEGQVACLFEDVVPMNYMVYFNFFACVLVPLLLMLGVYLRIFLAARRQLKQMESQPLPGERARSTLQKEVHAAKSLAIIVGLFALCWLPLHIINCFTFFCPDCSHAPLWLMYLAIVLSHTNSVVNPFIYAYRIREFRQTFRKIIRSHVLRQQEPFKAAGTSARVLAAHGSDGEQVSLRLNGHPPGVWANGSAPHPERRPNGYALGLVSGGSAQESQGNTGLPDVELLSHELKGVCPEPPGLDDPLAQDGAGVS
Sequence of cynomolgus A2aR on cynomolgus T cells (PBMC) (as listed by the source): as the sequence (P29274 whole entry) above, with M1V, S263N, A371T, G379S, D407G counted along it
Sequence of human adenosine A2A receptor (A2aR) (P29274 whole entry): as the sequence (P29274 whole entry) above
T4 sequence (Q60613 whole entry): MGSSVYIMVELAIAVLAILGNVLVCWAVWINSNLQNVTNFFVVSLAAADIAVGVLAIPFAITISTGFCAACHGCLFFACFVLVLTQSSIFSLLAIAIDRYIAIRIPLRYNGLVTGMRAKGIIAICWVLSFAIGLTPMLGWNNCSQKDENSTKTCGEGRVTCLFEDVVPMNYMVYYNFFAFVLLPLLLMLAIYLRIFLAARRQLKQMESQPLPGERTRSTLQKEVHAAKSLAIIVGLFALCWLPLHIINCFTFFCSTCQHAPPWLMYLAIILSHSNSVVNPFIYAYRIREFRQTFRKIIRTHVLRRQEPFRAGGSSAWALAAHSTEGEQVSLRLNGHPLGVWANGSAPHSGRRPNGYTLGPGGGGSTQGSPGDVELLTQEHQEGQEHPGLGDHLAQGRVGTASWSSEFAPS

Molecule	IC50 (M), cAMP-Glo assay of NECA-induced cAMP in HEK293 cells stably expressing human A2aR [1]	Geo Mean ([2]; 2 nM)	Geo Mean ([2]; 10 nM)	Geo Mean ([2]; 50 nM)	binding result [3]	binding result [4]	binding result [5]	binding to human T cells (CD4+ and CD8+) of PBMC (FIG. 6) [6]	binding to cynomolgus T cells (CD4+ and CD8+) of PBMC (FIG. 6) [7]
B1	4.48e-09 M	2.11 and 2.09	2.23 and 2.32	2.45 and 2.3	no binding (tested: 2, 10 and 50 nM tested)	no binding (tested: 2, 10 and 50 nM tested)	no binding (tested: 2, 10 and 50 nM tested)		
B2		2.07 and 1.96	2.49 and 2.33	2.66 and 2.25				bound to a small subset of human T cells; also recorded: binds	cross-reacted with cynomolgus T cells; also recorded: binds
